Legend:
Type in all cases: binding
Conditions in all cases: Example 14
[1] = biological target: His-EK-cynoGal3; assay: Affinity kinetics to cynomolgus Gal3 (Biacore T200)
Experimental: In each cycle, duplicates were made by loading the same antibody to flow cells FC2 and FC4, and then analyte was flowed to all 4 flow cells. The detection was done pairwise, FC2-FC1 and FC4-FC3, to subtract non-specific binding of analyte to the surface. A cycle of 0 nM analyte was run prior to a dilution series of analyte. The 0 nM raw data were subtracted from each non-zero concentration data to minimize machine drifts. The data were analyzed by Biacore Evaluation software version 2.0. The binding affinities were characterized by fitting the kinetic sensograms to a monovalent binding model (1:1 binding).
(§1) The affinity of Gal3 binding to antibody was determined by acquiring real time Ligand:Analyte binding kinetics data and fitting the data with a 1:1 monovalent binding model. The kinetic evaluation procedure determines association and dissociation constants by fitting the experimental data to a 1:1 interaction model between analyte A and ligand B:
(§2) The affinity KD is the result of Kd divided by Ka.
(§3) The protocol disclosed in Example 9 was generally followed.

[2] = biological target: T1, human Gal3 (Homo sapiens, UniProt P17931); assay: Affinity kinetics to human Gal3 (Carterra LSA)
T1 construct: 6xHis (linker-spaced) (C); purchased AcroBio (Acro Biosystems) GA3-H5129
T1 sequence (P17931 whole entry): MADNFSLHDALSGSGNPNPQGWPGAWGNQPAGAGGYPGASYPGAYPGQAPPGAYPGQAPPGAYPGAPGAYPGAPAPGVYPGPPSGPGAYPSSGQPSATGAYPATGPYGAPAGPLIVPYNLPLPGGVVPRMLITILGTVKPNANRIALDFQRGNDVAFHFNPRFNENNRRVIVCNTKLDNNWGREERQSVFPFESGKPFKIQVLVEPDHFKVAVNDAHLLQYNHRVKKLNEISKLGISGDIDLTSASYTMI
Experimental: (§4) Kinetics experiments were performed on a Carterra LSA at 25° C.
(§5) Then, a dilution series of Gal3 (2, 4, 8, 16, 32, 64, and 128 nM) in HBSTE with 0.5 mg/mL BSA was injected to the whole array for 300 seconds to allow association followed by dissociation for 240 seconds. The kinetics constants were calculated by the software NextGenKIT.
as §1, §2, §3

[3] = biological target: T2, His-EK-ratGal3 (Rattus norvegicus, UniProt P08699); assay: Affinity kinetics to rat Gal3 (Biacore T200)
T2 sequence (P08699 1-262): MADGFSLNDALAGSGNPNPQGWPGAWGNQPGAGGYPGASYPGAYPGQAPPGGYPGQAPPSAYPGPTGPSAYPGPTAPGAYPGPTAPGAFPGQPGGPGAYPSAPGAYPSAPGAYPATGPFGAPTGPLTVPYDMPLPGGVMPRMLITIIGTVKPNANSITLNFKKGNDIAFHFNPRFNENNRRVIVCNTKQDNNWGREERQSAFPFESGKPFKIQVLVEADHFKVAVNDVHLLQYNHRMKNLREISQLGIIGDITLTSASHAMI
Experimental: In each sample cycle, duplicates of the same antibody in HBS-EP+ with 0.5 mg/mL BSA at 10 μg/mL were captured to FC2 and FC4 by flowing at 10.0 μL/min for 120 seconds, and then diluted His-EK-ratGal3 in HBS-EP+ with 0.5 mg/mL BSA was injected to all 4 flow cells at 30.0 μL/min for 180 seconds, followed by dissociation for 240 seconds. A dilution series of His-EK-ratGal3 started from 300 nM, and was 1:3 diluted for 6 points. FC1 and FC3 were used as reference flow cells, and their sensograms were subtracted from FC2 and FC4 respectively to reduce non-specific binding background. Also, an additional sample cycle at 0 nM analyte was run, and its sensogram was subtracted from those of non-zero nM cycles to address machine drifts and bulk shifts. The data were analyzed by Biacore Evaluation software version 2.0. The binding affinities were characterized by fitting the kinetic sensograms to a monovalent binding model (1:1 binding).
as §1, §2, §3

[4] = biological target: mouse Gal3 (Mus musculus, UniProt P16110); assay: Affinity kinetics to mouse Gal3 (Carterra LSA)
Chain of mouse Gal3 (P16110 whole entry): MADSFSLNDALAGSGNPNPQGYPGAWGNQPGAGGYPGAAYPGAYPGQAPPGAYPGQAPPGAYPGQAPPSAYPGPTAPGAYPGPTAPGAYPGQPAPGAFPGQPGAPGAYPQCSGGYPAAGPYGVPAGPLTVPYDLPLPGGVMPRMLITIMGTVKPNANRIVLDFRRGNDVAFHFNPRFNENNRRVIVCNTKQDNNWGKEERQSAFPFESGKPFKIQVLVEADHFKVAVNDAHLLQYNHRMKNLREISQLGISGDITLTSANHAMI
Experimental: as §4, §5, §1, §2, §3

## Synagis: negative control antibody, hIgG4 backbone [reference compound]
[1]
  affinity to His-EK-cynoGal3: did not bind
[2]
  average affinity to human Gal3: did not bind
[3]
  average affinity to His-EK-ratGal3: did not bind
[4]
  average affinity to mouse Gal3: did not show any binding activity
